These results are taken from paper PMC12190498, “Improving the Catalytic Activity and Thermostability of FAST-PETase with a Multifunctional Short Peptide” (Biomolecules, 2025).

Substrate in the data set: CCCC(=O)Oc1ccc([N+](=O)[O-])cc1
The data set is described as follows: purified protein. The class given is biochemical, Pseudideonella sakaiensis.

[1] abbreviates: 50 mM potassium phosphate pH 7.5, 50°C or 55°C (50°C is the optimum of this enzyme).
Setting [2] is: 50 mM potassium phosphate pH 7.5, 50°C or 55°C (55°C is the optimum of this enzyme).

B1: FAST-PETase (Pseudideonella sakaiensis; D186H/N233K/R224Q/R280A/S121E) (protein)
chain: QTNPYARGPNPTAASLEASAGPFTVRSFTVSRPSGYGAGTVYYPTNAGGTVGAIAIVPGYTARQSSIKWWGPRLASHGFVVITIDTNSTLDQPESRSSQQMAALRQVASLNGTSSSPIYGKVDTARMGVMGWSMGGGGSLISAANNPSLKAAAPQAPWHSSTNFSSVTVPTLIFACENDSIAPVNSSALPIYDSMSQNAKQFLEIKGGSHSCANSGNSNQALIGKKGVAWMKRFMDNDTRYSTFACENPNSTAVSDFRTANCS
notes: FAST-PETase, C-terminal 6xHis, pET28a, E. coli Origami 2(DE3), Ni-NTA
In general, Km refers to the substrate concentration at which the rate is half of its maximum. In general, kcat refers to the number of substrate molecules converted per active site and unit of time at saturation. The term kcat/Km denotes the turnover number divided by the Michaelis constant. With B1, under setting [1], the Km came to 880 ± 160 µM, the kcat was 0.724 ± 0.0532 s⁻¹ and the kcat/Km stood at 824 ± 112 M⁻¹ s⁻¹.

B2: S1v1-FAST-PETase (Pseudideonella sakaiensis; D186H/N233K/R224Q/R280A/S121E) (protein)
chain: QTNPYARGPNPTAASLEASAGPFTVRSFTVSRPSGYGAGTVYYPTNAGGTVGAIAIVPGYTARQSSIKWWGPRLASHGFVVITIDTNSTLDQPESRSSQQMAALRQVASLNGTSSSPIYGKVDTARMGVMGWSMGGGGSLISAANNPSLKAAAPQAPWHSSTNFSSVTVPTLIFACENDSIAPVNSSALPIYDSMSQNAKQFLEIKGGSHSCANSGNSNQALIGKKGVAWMKRFMDNDTRYSTFACENPNSTAVSDFRTANCS
notes: artificial peptide S1v1 (AEAEAHAH)2 fused to N-terminus via PT-linker …, C-terminal 6xHis, E. coli Origami 2(DE3), Ni-NTA
With B2, under setting [2], the Km is 860 ± 150 µM, the kcat was 0.581 ± 0.0392 s⁻¹ and the kcat/Km came to 679 ± 72.2 M⁻¹ s⁻¹.

B3: FAST-PETase-S1v1 (Pseudideonella sakaiensis; D186H/N233K/R224Q/R280A/S121E) (protein)
chain: QTNPYARGPNPTAASLEASAGPFTVRSFTVSRPSGYGAGTVYYPTNAGGTVGAIAIVPGYTARQSSIKWWGPRLASHGFVVITIDTNSTLDQPESRSSQQMAALRQVASLNGTSSSPIYGKVDTARMGVMGWSMGGGGSLISAANNPSLKAAAPQAPWHSSTNFSSVTVPTLIFACENDSIAPVNSSALPIYDSMSQNAKQFLEIKGGSHSCANSGNSNQALIGKKGVAWMKRFMDNDTRYSTFACENPNSTAVSDFRTANCS
notes: artificial peptide S1v1 (AEAEAHAH)2 fused to C-terminus via PT-linker …, C-terminal 6xHis, E. coli Origami 2(DE3), Ni-NTA
Regarding B3, under setting [2], the Km is 1220 ± 180 µM, the kcat amounted to 1.36 ± 0.0918 s⁻¹ and the kcat/Km is 1110 ± 138 M⁻¹ s⁻¹.
